The values below come from patent US20050271676A1, “Inducing cellular immune responses to human immunodeficiency virus-1 using peptide and nucleic acid compositions” (Epimmune Inc., priority 1993, published 2005).

The target of one assay is HLA-A*2402 (Homo sapiens, UniProt P04439, D101N/D140Y/D185E/E176V/E190D/F33S/G103R/G107R/I119L/I121M/I306V/K335N/L105A/L180Q/L300P/N151K/N90K/Q86E/Q94H/R106L/R138H/R89G/T104I/T345S/V100E/W191G/Y123F). Description: purified HLA class I binding assay, A*2402. Conditions: for A*2401 (binding information): unit not given.
Another assay deals with HLA-A*0202 (Homo sapiens, UniProt P04439, D140Y/D185E/D98H/E176V/E277Q/G131W/G231S/I119L/I121R/I166T/I218V/L180W/L300P/L318F/N151K/N90K/P208A/P217A/Q67R/Q86G/Q94H/R138H/R169H/T345S). Description: purified HLA class I binding assay, A*0202.
Another assay has as its target HLA-A*0203 (Homo sapiens, UniProt P04439, A173T/D140Y/D185E/D98H/E277Q/G131W/G231S/I119V/I121R/I166T/I218V/L180W/L300P/L318F/N151K/N90K/P208A/P217A/Q86G/Q94H/R138H/R169H/T345S). The assay is described as follows: purified HLA class I binding assay, A*0203.
The next assay deals with HLA-A*0201 (Homo sapiens, UniProt P04439, D140Y/D185E/D98H/E176V/E277Q/G131W/G231S/I119V/I121R/I166T/I218V/L300P/L318F/N151K/N90K/P208A/P217A/Q86G/Q94H/R138H/R169H/T345S). Description: purified HLA class I binding assay, A*0201.
Another assay has as its target HLA-A*6802 (Homo sapiens, UniProt P04439, A269V/D140Y/D185E/E176V/E277Q/E87N/F33Y/G231S/I121R/I166T/I218V/L180W/L300P/L318F/N151K/P208A/P217A/Q86R/R138H/R169H/S129P/T345S/V36M). The assay is described as follows: purified HLA class I binding assay, A*6802.
Another assay concerns the target HLA-A*0206 (Homo sapiens, UniProt P04439, D140Y/D185E/D98H/E176V/E277Q/F33Y/G131W/G231S/I119V/I121R/I166T/I218V/L300P/L318F/N151K/N90K/P208A/P217A/Q86G/Q94H/R138H/R169H/T345S). Description: purified HLA class I binding assay, A*0206.
The target of another assay is HLA-A*6801 (Homo sapiens, UniProt P04439, A269V/D185E/E176V/E277Q/E87N/F33Y/G231S/I121M/I166T/I218V/L180W/L300P/L318F/N151K/P208A/P217A/Q86R/R169H/T345S). The assay is described as follows: purified HLA class I binding assay, A*6801. The note with it: Table IX, unit not given.
Another assay deals with HLA-A*3101 (Homo sapiens, UniProt P04439, A270S/D185E/E176V/E277Q/F33T/G231S/G80R/H175R/I121M/I218V/I322F/K168Q/L300P/L318F/M331R/P217A/Q94H/R138Q/T323A/T345S/T97I/V358M). Description: purified HLA class I binding assay, A*3101. The note with it: Table IX, unit not given.
A further assay concerns the target HLA-A*1101 (Homo sapiens, UniProt P04439, A114D/D185E/E176A/F33Y/L180Q/S129P/T187R). The assay is described as follows: purified HLA class I binding assay, A*1101.
For another assay, the target named is T1, HLA-A*0301 (Homo sapiens, UniProt P04439).
T1 construct: endogenous in cells; host or cells: GM3107
The assay is described as follows: purified HLA class I binding assay, A*0301. Conditions: for A*0301 binding information: Table IX.

[1] abbreviates: HIV A24 supermotif peptides, Table X, A*2401.
The mark [2] stands for this setting: HIV A03 supermotif peptides, Table IX, unit not given.
Setting [3] is: HIV A03 supermotif peptides, unit not given.
[4] abbreviates: HIV A03 super motif peptides, binding value.
[5] abbreviates: Table IX, HIV A03 super motif peptides, binding value, unit not given.
Where [6] appears, read: Table XVII, HIV A11 motif peptides, binding value A*1101, unit not given.
[7] abbreviates: HIV A03 super motif peptides, binding value, unit not given.
The mark [8] stands for this setting: HIV A24 motif peptides, purified HLA-A24 molecule.

No end group written: not given here.

In turn, PYNEWTLEL [Peptide 25.0128] returned a 50% inhibitory concentration (IC50) at HLA-A*2402 of 86 nM. This counts as double-digit nanomolar.
As to FLGAAGSTM [1211.05], the IC50 is 3580 nM on HLA-A*0202; 1.5 nM on HLA-A*0203; 73.5 nM on HLA-A*0201; 66700 nM at HLA-A*6802; 4110 nM at HLA-A*0206.
For the molecule IYQEPIKNL, the “A*2401 (binding information)” value with HLA-A*2402 (setting [1]) stood at 0.0520.
TVQCTIIGIR: the “A*6801 binding information” value with HLA-A*6801 (HIV A03 supermotif peptides) stood at 0.0120. For the same molecule, the “A*3101 binding information” value in the assay with HLA-A*3101 (HIV A03 supermotif peptides) is on record as 0.0880. The “A*1101 (binding information)” value stood at 0.0008 in the assay with HLA-A*1101 (setting [2]) and 0.0008 with HLA-A*1101 (Table XVII, HIV A11 motif peptides, binding value for purified HLA-A*1101, unit not given). The “A0301 (binding information)” value with HLA-A*0301 (HIV A03 motif peptides, Table XVI, unit not given) was found to be 0.0008. The “A*0301 binding information” value with HLA-A*0301 (setting [3]) worked out at 0.0008.
Regarding `CC(C)C[C@H](NC(=O)[C@H](CCCCN)NC(=O)[C@H](Cc1ccccc1)NC(=O)[C@H](CS)NC(=O)[C@H](Cc1c[nH]c2ccccc12)NC(=O)CNC(=O)[C@H](Cc1ccccc1)NC(=O)[C@@H](NC(=O)[C@@H](N)CC(C)C)[C@@H](C)O)C(=O)N[C@H](C(=O)O)C(C)C` [Peptide 1261.14], the IC50 on HLA-A*0202 came to 48.9 nM; at HLA-A*6802, 6.2 nM.
For GYELIIPDKW, the “A*2401 (binding information)” value with HLA-A*2402 (setting [1]) was determined as 0.0001.
As to QARYLAVER, in the assay with HLA-A*6801 (HIV A03 supermotif peptides), the “A*6801 binding information” value is 0.0007. For the same molecule, the “A*3101 binding information” value with HLA-A*3101 (HIV A03 supermotif peptides) was 0.0320. Also, the “A*1101 (binding information)” value with HLA-A*1101 (setting [2]) amounted to 0.0003. Further, the “A*0301 binding information” value in the assay with HLA-A*0301 (setting [3]) came to 0.0009.
Consider FTTPDKKIIQK, for which the “A*6801 binding information” value with HLA-A*6801 (setting [4]) was determined as 0.0273. Also, the “A*3101 binding information” value in the assay with HLA-A*3101 (setting [4]) was 0.0010. In addition, the “A*1101 (binding information)” value with HLA-A*1101 (setting [5]) and with HLA-A*1101 (setting [6]) was 0.0150 each time. Also, in the assay with HLA-A*0301 (setting [7]), the “A*0301 binding information” value turned out to be 0.0002.
As for ASCDKCQLK, the “A*6801 binding information” value with HLA-A*6801 (setting [4]) is listed as 0.0001. Further, in the assay with HLA-A*3101 (setting [4]), the “A*3101 binding information” value came out at 0.0020. Besides, the figures for the “A*1101 (binding information)” value with HLA-A*1101 (setting [5]) and with HLA-A*1101 (setting [6]) were 0.0140 and 0.0040, respectively. Moreover, the “A0301 (HIV A03 Motif Peptides with Binding Information)” value with HLA-A*0301 (HIV POL-derived A03 motif peptides, binding value for purified HLA-A*0301, unit not given) came to 0.0027. In addition, the “A*0301 binding information” value with HLA-A*0301 (setting [7]) is listed as 0.0027.
On to `CSCC[C@H](N)C(=O)N[C@@H](C)C(=O)N[C@@H](CO)C(=O)N[C@@H](CC(=O)O)C(=O)N[C@@H](Cc1ccccc1)C(=O)N[C@@H](CC(N)=O)C(=O)N[C@@H](CC(C)C)C(=O)N1CCC[C@H]1C(=O)N1CCC[C@H]1C(=O)N[C@H](C(=O)O)C(C)C` [Peptide 1261.15], for which the IC50 at HLA-A*0202 is 22.6 nM; on HLA-A*0203, 55.6 nM; at HLA-A*6802 it was 18.2 nM; on HLA-A*0206, 33.6 nM.
Turning to PYNLWILEL, the “A*2401 (binding information)” value with HLA-A*2402 (HIV A24 supermotif peptides, A*2401, so probably a relative binding value) was found to be 0.1400.
Turning to `CC(C)C[C@H](NC(=O)[C@H](CCCCN)NC(=O)[C@H](Cc1ccccc1)NC(=O)[C@H](CS)NC(=O)[C@H](Cc1c[nH]c2ccccc12)NC(=O)CNC(=O)[C@H](Cc1ccccc1)NC(=O)[C@@H](NC(=O)[C@H](CC(C)C)NC(=O)[C@@H]1CCCN1)[C@@H](C)O)C(=O)O` [25.0142], the IC50 at HLA-A*0202 worked out at 741 nM; on HLA-A*6802, 47.6 nM; on HLA-A*0206 it was 3700 nM.
Take VWKEATITLF: the “A*2401 (binding information)” value with HLA-A*2402 (HIV A24 motif peptides, binding value for purified HLA-A24 molecule, A*2401) turned out to be 0.2700.
For the molecule KMIGGIGGPI, the “A*2401 (binding information)” value with HLA-A*2402 (setting [8]) stood at 0.0001.
GIPHPAGLK: the “A*6801 binding information” value at HLA-A*6801 (setting [4]) was found to be 0.0110. The “A*3101 binding information” value on HLA-A*3101 (setting [4]) is listed as 0.0007. The “A*1101 (binding information)” value at HLA-A*1101 (setting [5]) was determined as 0.0650.
Take QMAVFIIINF: the “A*2401 (binding information)” value with HLA-A*2402 (setting [8]) and in the assay with HLA-A*2402 (setting [1]) was 0.0190 in each case.

Usually IC50 stands for the concentration that gives 50% inhibition. A high value points to weaker potency in that assay.
